Measurements taken from the supplement of paper PMC10724198.
± gives the standard deviation of the averaged measurements.

Test system: Saccharomyces cerevisiae
Assay: protein stability index of tFT-peptide fusion (C-terminal peptide) (PSI (0-1 scale)); higher = more stable (slower turnover)
Conditions: genetic background: wild type; temperature: 30 C
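Note: PSI is a weighted mean of sequencing reads over stability bins, variants kept only with over 10 reads, mCherry proximal and sfGFP distal, peptide attached via GGGS linker.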

Sequence | protein stability index
SGDSVAVGVTGT | 0.689 ± 0.056
PPPPASSFSPPR | 0.7366 ± 0.0054
ASPAIDSETSEY | 0.686 ± 0.16
PTPLPPRSPPPQ | 0.754 ± 0.045
RESRGAGGGEGG | 0.667 ± 0.033
DDCFCGRFWVVV | 0.6787 ± 0.0032
GRVFRGRNGRCM | 0.7443 ± 0.0067
PGTLLHPLSVGR | 0.668 ± 0.019
RRAAVGGCLGGW | 0.726 ± 0.017
INKLRLNKKKSF | 0.659 ± 0.008
SSPSSLPAPPSA | 0.666 ± 0.039
ESAGESRREFGG | 0.693 ± 0.011
ASAGTVYLTLLP | 0.697 ± 0.072
SFISPFFCTRPV | 0.638 ± 0.012
SSPPPAFPRASP | 0.633 ± 0.015
PFLIPPRPFSFP | 0.709 ± 0.1
SRPPTFPPFFPS | 0.702 ± 0.015
RLSFSVPPCLDI | 0.691 ± 0.032
PPTPPRPPPRTT | 0.69 ± 0.028
TESGVCWCRREV | 0.685 ± 0.04
GGCLSVLGLGSV | 0.688 ± 0.031
ARKDVTRKSSND | 0.665 ± 0.064
IGRLQGWSSGDE | 0.688 ± 0.037
NTDSHIKIRKKI | 0.7032 ± 0.0068
FLSWSLPCITFR | 0.571 ± 0.051
TFREMPESIGNG | 0.654 ± 0.047

Sequence | protein stability index
LLLFSILPFCLF | 0.53 ± 0.073
PTPRGTPCPDTM | 0.66 ± 0.065
KFKVLKVLEVRL | 0.6453 ± 0.0019
ACCPPRLAPPPL | 0.675 ± 0.016
SLSHSPSPPPPT | 0.638 ± 0.0084
RKMTSIINKKTV | 0.513 ± 0.0083
ENLFLRRVWFCR | 0.686 ± 0.022
TSAEYKIETIFT | 0.688 ± 0.036
WHRCQWTPASRP | 0.733 ± 0.05
PPFRRPPPDPQP | 0.7343 ± 0.0059
FPPLRSLPPTPP | 0.793 ± 0.12
PPPYAPLPPTWP | 0.726 ± 0.023
LSVSRLGFLLRG | 0.684 ± 0.037
AGLIRDAVILIG | 0.631 ± 0.021
TKFSSPPLVRTS | 0.71 ± 0.031
RGGCLPTCPQET | 0.652 ± 0.026
RRLMMPSGQGLT | 0.702 ± 0.031
SASRPRRWGLAR | 0.609 ± 0.007
EYCSSCLADLSP | 0.69 ± 0.074
DLLWASLCLRSY | 0.679 ± 0.021
YAGDPEAAAEWG | 0.68 ± 0.052
WAVGGKVNEVIE | 0.757 ± 0.06
SRWDSDRGGERR | 0.805 ± 0.027
PLTNPPCLTKYP | 0.793 ± 0.033
VRSVSCPCCAHF | 0.7058 ± 0.0056
LLQSPRLGQEWA | 0.6928 ± 0.0028

Sequence | protein stability index
VAPPSSFPPPRL | 0.726 ± 0.056
YWGEGGCREGGE | 0.664 ± 0.056
RGGRLQVGMEAV | 0.6653 ± 0.0022
WGALVLAVRSAP | 0.642 ± 0.037
CYLSVGVASWNS | 0.6816 ± 0.0026
QRRGAPTPPACL | 0.748 ± 0.011
HSPPAGPPHTKT | 0.6694 ± 0.0039
TTLATVLRTFPG | 0.724 ± 0.031
CSWNLLAHPPAQ | 0.744 ± 0.0093
PRLGFFPFPSGP | 0.709 ± 0.03
LFAGTFTEYPLS | 0.641 ± 0.078
NLRLYDCKVAPP | 0.691 ± 0.036
IINKRITKETDE | 0.6738 ± 0.0023
GGGSGVLEWGSV | 0.714 ± 0.12
GPFHILSSATRP | 0.705 ± 0.054
PPPTLYPPPFPP | 0.659 ± 0.027
ATDWPELFLPFG | 0.666 ± 0.007
FASFLSIPTRFS | 0.712 ± 0.02
PPPLPVFPRPPP | 0.682 ± 0.012
TPRPRRNCGPGP | 0.717 ± 0.2
PRPPNPRPPPPP | 0.729 ± 0.071
VLLPEPCALRFT | 0.551 ± 0.029
RLREVVHKYNSI | 0.757 ± 0.086
AGGGGRLTRSRA | 0.691 ± 0.087
LPPPLSSPSSLR | 0.7153 ± 0.0071
RKRHDLPPAGPH | 0.713 ± 0.023

Sequence | protein stability index
WSPLFPLLASST | 0.678 ± 0.016
GGCVGVLGGWGV | 0.695 ± 0.012
PGGQGVRTDRPQ | 0.678 ± 0.025
AFFVAFLPLLSR | 0.552 ± 0.031
VIESRNEEGGRV | 0.727 ± 0.022
INVCVLSSSTAS | 0.684 ± 0.079
APQTELTGVLFG | 0.685 ± 0.0071
DRVRGLCIPNGP | 0.681 ± 0.043
TIGPVRSGHVLA | 0.6807 ± 0.0055
MERAGTADGGGA | 0.662 ± 0.016
SPPPPPPRSPPL | 0.606 ± 0.0074
SYSSILPPLSSA | 0.686 ± 0.022
EGGGGKGRKRRA | 0.712 ± 0.022
LALKYLGQLIGA | 0.594 ± 0.024
RTDALKVVADMI | 0.682 ± 0.034
YAAQLGLGVLVG | 0.6 ± 0.0077
NRTGVRIEIKGR | 0.636 ± 0.081
CGPRPDSIDVGF | 0.608 ± 0.052
TRGSRGARGGGW | 0.716 ± 0.012
CPPVRLSLPPSL | 0.68 ± 0.019
PFRPPPLLPFSP | 0.799 ± 0.13
SPEFIQAIQNPV | 0.724 ± 0.049
GKRRCRREVERK | 0.695 ± 0.018
